Reference: ChEMBL document CHEMBL1132501, “Synthesis and anti-Helicobacter pylori activity of FR182024, a new cephem derivative” (1999)

Tests used:
[1] = substrate: O=C(Cc1cccs1)N[C@@H]1C(=O)N2C(C(=O)[O-])=C(C[n+]3ccccc3)CS[C@H]12; assay: The compound was tested against Bacteroides fragilis FP784 and its stability towards beta-lactamase relative to cephaloridine was evaluated; assay type: functional
[2] = substrate: O=C(Cc1cccs1)N[C@@H]1C(=O)N2C(C(=O)[O-])=C(C[n+]3ccccc3)CS[C@H]12; assay: The compound was tested against Bacteroides fragilis FP784 and its stability towards beta-lactamase was evaluated; assay type: functional

B1: Beta-lactamase (Enterobacter cloacae), P05364 (protein)
chain: MMRKSLCCALLLGISCSALATPVSEKQLAEVVANTITPLMKAQSVPGMAVAVIYQGKPHYYTFGKADIAANKPVTPQTLFELGSISKTFTGVLGGDAIARGEISLDDAVTRYWPQLTGKQWQGIRMLDLATYTAGGLPLQVPDEVTDNASLLRFYQNWQPQWKPGTTRLYANASIGLFGALAVKPSGMPYEQAMTTRVLKPLKLDHTWINVPKAEEAHYAWGYRDGKAVRVSPGMLDAQAYGVKTNVQDMANWVMANMAPENVADASLKQGIALAQSRYWRIGSMYQGLGWEMLNWPVEANTVVEGSDSKVALAPLPVAEVNPPAPPVKASWVHKTGSTGGFGSYVAFIPEKQIGIVMLANTSYPNPARVEAAYHILEALQ
Q: For B1, which Vmax [1] is on record?
A: 1

Q: And the Km [2]?
A: 31.7 µg/mL
